According to patent publication US11208498B2, “Treatment and prevention of cancer using HER3 antigen-binding molecules” (Hummingbird Bioscience Holdings Pte. Ltd., priority 2019, dated 2021):

Assays:
[1] = target: human HER3: human NRG1 complex (Homo sapiens, UniProt P21860); experiment: BLI binding to HER3 in ligand-bound 'open' conformation; conditions: NRG1 at 1:1 molar ratio with HER3
Protocol: In further experiments, anti-HER3 antibodies were analysed in order to determine the affinity of binding to human HER3 in the context of a human HER3: human NRG1 complex (that is, HER3 provided in the ligand-bound, ‘open’ conformation), as compared to the affinity of binding to human HER3 in the absence of NRG1 complex (that is, HER3 provided in the unbound, ‘closed’ conformation).
(§1) Binding of anti-HER3 antibodies to human HER3 was evaluated by BLI. Briefly, anti-Human IgG Capture (AHC) sensors (ForteBio) were loaded with anti-HER3 IgG antibodies (25 nM). Kinetic measurements were performed in absence or presence of NRG1. NRG1 was used at 1:1 molar ratio with HER3 wherein the complex was allowed to form at RT for 2 h. His-tagged human HER3 or HER3-NRG1 complexes were loaded to antibody coated AHC sensors at different concentrations for 120 s, followed by a 120 s dissociation time. All measurements were performed at 25° C. with agitation at 1000 rpm. Sensorgrams were referenced for buffer effects and then analyzed using the Octet QK384-software (ForteBio). Kinetic responses were globally fitted using a one-site binding model to obtain values for association (Kon), dissociation (Koff) rate constants and the equilibrium dissociation constant (KD).

human HER3 = human HER3 (Homo sapiens, UniProt P21860); experiment: Global affinity study by Bio-Layer Interferometry (Octet QK384); format: binding; conditions: HER3 unbound, 'closed' conformation
Protocol: The anti-HER3 antibody clones in IgG1 format were analysed for binding affinity to human HER3.
Bio-Layer Interferometry (BLI) experiments were performed using the Octet QK384 system (ForteBio). anti-Human IgG Capture (AHC) Octet sensor tips (Pall ForteBio, USA) were used to anti-HER3 antibodies (25 nM). All measurements were performed at 25° C. with agitation at 1000 rpm. […] Sensograms were referenced for buffer effects and then fitted using the Octet QK384 user software (Pall ForteBio, USA).
as §1

human EGFR = target: T1, human EGFR (Homo sapiens, UniProt P00533); experiment: ELISA for antibody specificity: human EGFR (HER1); format: binding
T1 construct: purchased Sino Biological Inc., China
Protocol: ELISAs were used to determine the binding specificity of the antibodies. The antibodies were analysed for binding to human HER3 polypeptide, as well as respective mouse, rat and monkey homologues of HER3 (Sino Biological Inc., China). The antibodies were also analysed for their ability to bind to human EGFR and human HER2 (Sino Biological Inc., China).
ELISAs were carried out according to standard protocols. Briefly, 96-well plates (Nunc, Denmark) were coated with 0.1 μg/ml of target polypeptide in phosphate-buffered saline (PBS) for 16 h at 4° C. After blocking for 1 h with 1% BSA in Tris buffer saline (TBS) at room temperature, the anti-HER3 antibody was serially diluted with the highest concentration being 10 μg/ml, and added to the plate. Post 1 h incubation at room temperature, plates were washed three times with TBS containing 0.05% Tween 20 (TBS-T) and were then incubated with a HRP-conjugated anti-His antibody (Life Technologies, Inc., USA) for 1 h at room temperature. […] The reaction was stopped with 2M H2SO4, and OD was measured at 450 nm.
The antibodies were analysed for their ability to bind to human HER3 polypeptide as well as human HER1 (EGFR) and human HER2 (Sino Biological Inc., China). […]
ELISAs were carried out according to standard protocols. […] The reaction was stopped with 2M […], and OD was measured at 450 nm.

His-tagged human HER3 = His-tagged human HER3 (Homo sapiens, UniProt P21860); experiment: BLI competition between anti-HER3 antibodies for binding to HER3
Protocol: Bio-Layer Interferometry (BLI) experiments were performed using the Octet QK384 system (ForteBio). anti-Penta-HIS (HIS1K) coated biosensor tips (ForteBio, USA) were used to capture His-tagged human HER3 (75 nM; 300 s). […] The variable region of LJM-716 antibody was cloned in the PDZ vector having human IgG1 and IgKappa Fc backbone.
BLI experiments were performed as described in Example 3.5 with one alteration: 400 nM of competing antibodies were used. The variable regions of M-05-74 and M-08-11 antibodies were cloned in the PDZ vector having human IgG1 and IgKappa Fc backbone.

[2] = system: intracellular signalling pathways in FaDu cells; experiment: Phosphoprotein Antibody Array, FaDu cells; format: cell-based; conditions: 50 μg/ml antibody 4 hrs, NRG 100 ng/ml 15 min
Protocol: In further experiments the inventors investigated the intracellular signalling pathways affected by anti-HER3 antibody-mediated inhibition of HER3.
FaDu cells were seeded in wells of a 6 well plate with 10% serum at 37° C., 5% CO2. After 16 hrs, cells were starved by culture overnight in 1% FBS cell culture medium. On the following day cells were treated with 50 μg/ml anti-HER3 antibody 10D1 for 4 hrs, followed by 15 min stimulation with NRG (100 ng/ml). Proteins were then extracted, quantified using standard Bradford protein assay, and incubated overnight with pre-blocked Phosphoprotein Antibody Array membrane (Ray Biotech) at 4° C. The membrane was then washed with washing buffer and incubated with detection antibody cocktail for 2 hrs at room temperature, followed by washing and incubation with HRP-Conjugated anti-IgG. After 2 hrs the membrane was washed and probed using the kit detection buffer. Images were captured with Syngene Gbox imaging system, the intensity of each dot/phosphoprotein was measured and percent inhibition was calculated by comparison with intensity measured for cells treated in the same way in the absence of the antibody.

[3] = system: HER3 extracellular domain; experiment: Epitope mapping with overlapping 15-mer peptides; format: binding, human
Protocol: The epitope for 10D1 was mapped using overlapping 15-mer amino acids to cover the entire HER3 extracellular domain. Each unique 15-mer was elongated by a GS linker at C and N-terminals, conjugated to a unique well in 384 well plates, and the plates were incubated with 0.1, 1, 10 and 100 ug/ml of 10D1 antibody for 16 hrs at 4° C. The plates were washed and then incubated for 1 hr at 20° C. with POD-conjugated goat anti-human IgG. Finally POD substrate solution was added to the wells for 20 min. before binding was assessed by measurement of chemiluminescence at 425 nm using a LI-COR Odyssey Imaging System, and quantification and analysis was performed using the PepSlide Analyzer software package. The experiment was performed in duplicate.

Molecule: LJM716: anti-HER3 antibody clone described in Garner et al., Cancer Res (2013); epitope across domains II and IV [reference compound]
- affinity of binding to human HER3 in the presence of NRG1 [1]: dramatically reduced
- affinity of binding to human HER3 in the absence of NRG1 (human HER3): subpicomolar affinity

B1: 4-35-B2: anti-HER3 antibody clone, VH SEQ ID NO:127, VL SEQ ID NO:135 (antibody, V domains shown)
VH: EIQLQQSGPELVKPGASVKVSCKASGYSFTDYNMYWVKQSHGKSLEWIGHINPYNGGTTYNQKFKGRATLTVDKSSSTAFMHLNSLTSEDSAVYFCVSLRWGAMDYWGQGTSVTVSS
VL: QIVLTQSPALMSASPGEKVTMTCSASSSVSYMYWYQQKPRSSPKPWIYLTSNLASGVPARFSGSGSGTSYSLTISSMEAEDAATYYCQQWNSNPYTFGGGTKLEIK
modifications: 4-35-B2 heavy chain variable region; 4-35-B2 light chain variable region
- binding to human EGFR (human EGFR): found to bind

B2: 10D1: parental mouse anti-HER3 antibody clone, VH SEQ ID NO:24, VL SEQ ID NO:74, human IgG1 chimeric (antibody, V domains shown)
VH: DVQLQESGPDLVKPSQSLSLTCTVTGYSITSGYSWHWIRQFPGNKLEWMGSIHYSGGTNYNPSLKSRISITRDTSKNQFFLQLNSVTTEDTATYFCARMTTAPRYPFDYWGQGTTLTVSS
VL: DIVMTQSQKFMSTSVGDRVSVTCKASQIVGSNVAWYQQKPGQSPKPLIYSASYRYSGVPDRFTASGSGTDFTLTITNVQSEDLAEYFCQQYSSHPLTFGAGTKLELK
modifications: human IgG1 constant regions; 10D1 heavy chain variable region; 10D1 light chain variable region
- epitope of HER3 relative to MM-121 and/or LJM-716 (His-tagged human HER3): distinct and topologically distant epitope
- PI3K/AKT/mTOR and MAPK signalling [2]: inhibit PI3K/AKT/mTOR and MAPK signalling
- location of epitope relative to β-hairpin of HER3 dimerisation arm [3]: at a dimerisation interface N-terminal to the β-hairpin
- site of HER3 bound ([3]; positions of human HER3 SEQ ID NO:1, region SEQ ID NO:229): positions 218 to 235

B3: 10D1F: clone with VH SEQ ID NO:36 and VL SEQ ID NO:83; b369 means 10D1F.A, b1087 the mIgG2a format (antibody, V domains shown)
VH: QVQLQESGPGLVKPSQTLSLTCTVSGYSITSGYSWHWIRQHPGKGLEWIGSIRYSGGTDYNPSLKSLVTISADTSKNQFSLKLSSVTAADTAVYYCARMTTAPWYPFDYWGQGTTVTVSS
VL: DIQMTQSPSSVSASVGDRVTITCKASQIVGSNVAWYQQKPGKAPEPLIYSASYLYSGVPSRFSGSGSGTDFTLTISSLQPEDFATYYCQQYSSHPLTFGQGTKLEIK
modifications: 10D1_c89 heavy chain variable region; 10D1_c89 light chain variable region
notes: b369 means 10D1F.A, b1087 the mIgG2a format
- affinity of binding to human HER3 in the presence of NRG1 [1]: sub-picomolar affinity
- affinity of binding to human HER3 in the absence of NRG1 (human HER3): sub-picomolar affinity
